From the supplement of paper PMC12042874
± gives the uncertainty stated by the source.

Test: amyloid nucleation score (Sup35N fusion, yeast selection) (log enrichment); library NNK3; higher = more nucleation; inactive = no reads after selection
Method in brief: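 Three technical output replicates were used for random libraries. Psi-negative yeast expressing peptides of 20 random codons fused to Sup35N were induced with 100 μM copper sulfate for 24 hours and grown 7 days at 30°C on medium lacking adenine and uracil, and input and output plasmid inserts were Illumina-sequenced, excluding sequences with under 100 input reads. The nucleation score is the DiMSum log enrichment of output over input reads, centred on the mode score of non-aggregating sequences.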
With GISRMGMAEDPDSGWSHDYY the amyloid nucleation score was “inactive”.
In the case of SIRLGNNSWPVATSVKWHSV, the amyloid nucleation score is reported as “inactive”.
With LKSSPNPFMNNGFIISAILG the amyloid nucleation score was “inactive”.
With FIRTGELLFLVEWPLVCYTK the amyloid nucleation score was “inactive”.
Substance MFSLNVYMGDTIVVHQGFTD has an amyloid nucleation score of 2.77 ± 0.058.
For KDTQWALYRNL, the amyloid nucleation score was “inactive”.
For LYDTDSCLSSYCSPFRHPRY, the amyloid nucleation score was “inactive”.
ILTCFFSQEMIWHFLDTYDY gave an amyloid nucleation score of 0.522 ± 0.24.
In the case of FQSHLNIVIVYIRLNYTVLL, the amyloid nucleation score is reported as -0.394 ± 0.63.
Substance VSNMCVGMKLCFSDNHYREL has an amyloid nucleation score of 1.78 ± 0.067.
With KPMVYFQLRRLSKKVIYCAM the amyloid nucleation score was “inactive”.
In the case of MYWTNRHLQNIFWVKRNCGM, the amyloid nucleation score is reported as “inactive”.
Substance FRLRYRYFCRGRGCMDDLEY has an amyloid nucleation score of -0.288 ± 0.8.
With ESVCYLFCYSHYLGNYGYGS the amyloid nucleation score was “inactive”.
In the case of SGRKR, the amyloid nucleation score is reported as “inactive”.
In the case of YVGYIDRWSSCYKVFWV, the amyloid nucleation score is reported as “inactive”.
With WINTRLGCPDTNRGSTRVTL the amyloid nucleation score was “inactive”.
In the case of FFSCFCLLMRY, the amyloid nucleation score is reported as “inactive”.
With FSLRLPYFA the amyloid nucleation score was “inactive”.
With LFVWRSMNRFFQVYVLWSAE the amyloid nucleation score was “inactive”.
Substance YSFRVTYEGPHAN has an amyloid nucleation score of 0.873 ± 0.14.
In the case of NYDRYCANIMYTAMCIRLLW, the amyloid nucleation score is reported as “inactive”.
With SAYLELLLRSFAVICNLSLT the amyloid nucleation score was 2.31 ± 0.061.
In the case of LGTTSYRV, the amyloid nucleation score is reported as “inactive”.
With NFVMLEKPDRTDLPGCTKQR the amyloid nucleation score was “inactive”.
With GLTLRRWINAFHRHVGNKGQ the amyloid nucleation score was 0.592 ± 0.24.
In the case of HNDSYRMWGRGPPIVLT, the amyloid nucleation score is reported as “inactive”.
For YITLRGLWRYCQVMLVYVWK, the amyloid nucleation score was “inactive”.
For NFMGVYLVWNFIVVFKVHYV, the amyloid nucleation score was “inactive”.
Substance PLPLCKVM has an amyloid nucleation score of -0.039 ± 0.66.
For VFVPVYPEFFVRSG, the amyloid nucleation score was “inactive”.
With CFAYG the amyloid nucleation score was -0.533 ± 0.4.
In the case of MSICFDPWTRPKCGVYCRCS, the amyloid nucleation score is reported as “inactive”.
In the case of INWLWFLMHIIQI, the amyloid nucleation score is reported as “inactive”.
With KNDGTIVQM the amyloid nucleation score was “inactive”.
For VIITSSTVLMFRFLEYRESQ, the amyloid nucleation score was “inactive”.
SMIYRLRSWVQYCDSQC gave an amyloid nucleation score of 0.344 ± 0.21.
In the case of FIQWQSESVYIAYSNFTSSM, the amyloid nucleation score is reported as “inactive”.
For RYTMAVWRLMSCNSVKSVAL, the amyloid nucleation score was “inactive”.
For IMKRFVMFLCFSISIWMFVV, the amyloid nucleation score was “inactive”.
For FGFCWLFNLCYLGNVVYAVM, the amyloid nucleation score was “inactive”.
FGGAYFVTPGAYFVWYSFLG gave an amyloid nucleation score of 0.222 ± 0.31.
In the case of EFVRVLRDISLVSGVMGYHY, the amyloid nucleation score is reported as “inactive”.
With FMLCLMATLRKGLDANLWVT the amyloid nucleation score was “inactive”.
For LTNGRNTYFLLSRYYFGTTS, the amyloid nucleation score was “inactive”.
In the case of GIRVSLGVSFRECFNNSVSR, the amyloid nucleation score is reported as 2.43 ± 0.053.
With FGYPMPIRNVSVVPVLFYKG the amyloid nucleation score was “inactive”.
In the case of WVIRELTWITWIVLADLS, the amyloid nucleation score is reported as “inactive”.
For HYTHSNLQAPDPH, the amyloid nucleation score was “inactive”.
In the case of YQFDFTF, the amyloid nucleation score is reported as “inactive”.
In the case of LNADVTMLKSNGVMTIT, the amyloid nucleation score is reported as “inactive”.
In the case of GQAVNYFGGA, the amyloid nucleation score is reported as “inactive”.
For YGLVLGFRRTGYTCDDSLNW, the amyloid nucleation score was “inactive”.
For AIYAHYYRTWVFWYYMVPGC, the amyloid nucleation score was “inactive”.
For MSNMWKEYALALVVGLSFRL, the amyloid nucleation score was “inactive”.
In the case of CPESLWNKSYVYAGALTFLR, the amyloid nucleation score is reported as “inactive”.
For FKGLVVMKGLLNMIGGGACH, the amyloid nucleation score was 0.27 ± 0.4.
For VSTGSAGSLWSV, the amyloid nucleation score was “inactive”.
With QGISQPRHCFY the amyloid nucleation score was “inactive”.
For MGIQKTDRWRLWYYYWMREN, the amyloid nucleation score was “inactive”.
For RGSGILRVLTKSRWCICMGT, the amyloid nucleation score was “inactive”.
For RTWDYVLLGLLLLDYYRILA, the amyloid nucleation score was “inactive”.
With FFYSAFENMMMALLKMRKFH the amyloid nucleation score was “inactive”.
For SSFPGWDIECIC, the amyloid nucleation score was “inactive”.
For RSWIGTKGPL, the amyloid nucleation score was “inactive”.
For LKLYDGSFAFLKCTSFMFNG, the amyloid nucleation score was 1.19 ± 0.17.
For IRVRLINSGAL, the amyloid nucleation score was “inactive”.
For HIHEDWFFS, the amyloid nucleation score was “inactive”.
For FDERSF, the amyloid nucleation score was “inactive”.
In the case of DEANRYPRYLYILERLAYRK, the amyloid nucleation score is reported as “inactive”.
In the case of FIVVDMDSYRAVDGARVFVE, the amyloid nucleation score is reported as “inactive”.
For VTQATWLGRIYLLLAPA, the amyloid nucleation score was “inactive”.
With CWQFK the amyloid nucleation score was 0.22 ± 0.9.
For SFIKRVRDSMSRM, the amyloid nucleation score was “inactive”.
In the case of SIPVSCGPLKKDVVREIRVK, the amyloid nucleation score is reported as “inactive”.
With NSYQY the amyloid nucleation score was “inactive”.
TLAPKYFYFFVKDVFGTSYC showed an amyloid nucleation score of 1.54 ± 0.093.
In the case of ICRHLSIGG, the amyloid nucleation score is reported as “inactive”.
With TMWLLCELFVTC the amyloid nucleation score was “inactive”.
In the case of SFLARVFT, the amyloid nucleation score is reported as “inactive”.
SNASIYRSFWWGKYSRA gave an amyloid nucleation score of -0.619 ± 0.82.
For VCSDGLNWGHGVRMLWY, the amyloid nucleation score was “inactive”.
In the case of NMCYSVCVHYLLTAESKCHT, the amyloid nucleation score is reported as “inactive”.
For TSESAIAVRWSVFSPWPLGF, the amyloid nucleation score was 0.643 ± 0.15.
Substance CCFYRSSWVFKLGEGRVIIP has an amyloid nucleation score of 0.319 ± 0.43.
With IALTTRVN the amyloid nucleation score was “inactive”.
In the case of PNRWLSRLALRIFLGHCEPV, the amyloid nucleation score is reported as “inactive”.
In the case of YPGFSAGCDVWQKFNYGVMT, the amyloid nucleation score is reported as “inactive”.
In the case of SMHRQVPFPMKKHLEHLSMT, the amyloid nucleation score is reported as “inactive”.
Work on NMILFISCEIPGRGVFGRCC yielded an amyloid nucleation score of 1.13 ± 0.11.
With RLLHCGRILWGFVNDLMIML the amyloid nucleation score was “inactive”.
For RLTTNTIVKDSISRFRN, the amyloid nucleation score was 0.183 ± 0.29.
FVSKHRVSTIWRVISHMRGG gave an amyloid nucleation score of -0.257 ± 0.98.
In the case of SHFAEQGLSCSLSYSFSTIL, the amyloid nucleation score is reported as “inactive”.
With LAQMVNGRITDHYTLFRSRT the amyloid nucleation score was “inactive”.
For DVNCALYGKGLDVCRI, the amyloid nucleation score was “inactive”.
CIYWLEF showed an amyloid nucleation score of 1.57 ± 0.084.
VYNRRYKSNRNIYSHGNRLK gave an amyloid nucleation score of 1.54 ± 0.1.
For FSGTIGILFFMTWSTVLPWG, the amyloid nucleation score was “inactive”.
For DSVVRTSQMSVGYMCVRAEF, the amyloid nucleation score was “inactive”.
For CTKKM, the amyloid nucleation score was “inactive”.
For CSCWFFLVHNFNNIYRILWK, the amyloid nucleation score was “inactive”.
With LCISVPNFSLAFLSLGWLCK the amyloid nucleation score was “inactive”.
With LMLEISIHLLLYRVSISGYF the amyloid nucleation score was “inactive”.
In the case of YQSKQRVGSS, the amyloid nucleation score is reported as “inactive”.
In the case of VGCHLWEHWRSMQVR, the amyloid nucleation score is reported as “inactive”.
In the case of HQVKVIVCCVTYVVQYVVMM, the amyloid nucleation score is reported as “inactive”.
In the case of SCAYGLGCMLMVKHN, the amyloid nucleation score is reported as “inactive”.
Substance FYRAYSDYFWKTMFSYLGTS has an amyloid nucleation score of -0.619 ± 0.93.
With NNMLIGVRSVRAYKWFMHCV the amyloid nucleation score was “inactive”.
In the case of LGWGHACMKFVDHCVRSSRS, the amyloid nucleation score is reported as “inactive”.
For FIRMVGRLKKWRVS, the amyloid nucleation score was “inactive”.
For VGNGYTMSG, the amyloid nucleation score was “inactive”.
For LLVMSQVKYRHMSAAPA, the amyloid nucleation score was “inactive”.
CCFIYECSLRNLSALVDDQR showed an amyloid nucleation score of 1.18 ± 0.091.
Work on FHFYGFCLYAYFSAIEDQNC yielded an amyloid nucleation score of 2.06 ± 0.071.
For GITRVRSSFVSAASHV, the amyloid nucleation score was “inactive”.
With YNFNV the amyloid nucleation score was “inactive”.
Substance NLSLGQFIKAAVKFVHKPRK has an amyloid nucleation score of 1.34 ± 0.14.
For RISYMSGDYRPSKCACVYAE, the amyloid nucleation score was “inactive”.
In the case of DLGLERLAFS, the amyloid nucleation score is reported as “inactive”.
Substance RVRVYYGQDWYYKMLLARTI has an amyloid nucleation score of -0.379 ± 0.84.
For YQGKLI, the amyloid nucleation score was “inactive”.
Substance VHNYHERALKKHEGTTVRNF has an amyloid nucleation score of 0.154 ± 0.4.
For PTAKRM, the amyloid nucleation score was “inactive”.
For DENVALFFLF, the amyloid nucleation score was “inactive”.
For WIWSGMYSNWPNSAPVNIR, the amyloid nucleation score was “inactive”.
In the case of DRSIEVDAYSCAVGVYQGPV, the amyloid nucleation score is reported as “inactive”.
In the case of GMFARHVFMIIEPHRIIVFH, the amyloid nucleation score is reported as “inactive”.
With CVGHVRSYYGMQIPKGLKLS the amyloid nucleation score was “inactive”.
In the case of MKFVPHYEGVYCL, the amyloid nucleation score is reported as “inactive”.
With CFMHPADIPSMAVVVYLCAG the amyloid nucleation score was “inactive”.
For QILGTQAGYYCSREGFANL, the amyloid nucleation score was “inactive”.
With STDQSASRVSERQLLCLPLT the amyloid nucleation score was “inactive”.
For WVPKFYRLGSDTWSSVSLDV, the amyloid nucleation score was “inactive”.
PFWKLKQKWVR showed an amyloid nucleation score of -1.1 ± 1.9.
For MGVICWYLRACNPQPGSNCK, the amyloid nucleation score was “inactive”.
With SPLKIMH the amyloid nucleation score was “inactive”.
QLLVF showed an amyloid nucleation score of -1.23 ± 1.9.
With NLEYCSILFKRH the amyloid nucleation score was 2 ± 0.095.
For TFLWY, the amyloid nucleation score was “inactive”.
For FMPANAFWTKFCSARNRLYI, the amyloid nucleation score was -0.135 ± 0.57.
With VDKDTE the amyloid nucleation score was “inactive”.
Work on VALDNCTFVLVAMQTDQD yielded an amyloid nucleation score of 0.817 ± 0.12.
In the case of RRVMIALRYRRYGEFTEAYP, the amyloid nucleation score is reported as “inactive”.
In the case of FNKVRWSRVTGTFWKVLIRV, the amyloid nucleation score is reported as “inactive”.
For VFKCCVLFGGSRWFTLFLWF, the amyloid nucleation score was “inactive”.
With GRSRLQQVIHLAFTIKSVNG the amyloid nucleation score was “inactive”.
With VNKVKILCYGHHFKGMWDLA the amyloid nucleation score was “inactive”.
In the case of QSYVFVVLTPWVSRCGIGLA, the amyloid nucleation score is reported as “inactive”.
Substance TYLRLTWIDCYSPCFKSNAI has an amyloid nucleation score of 2.43 ± 0.061.
For IDIESL, the amyloid nucleation score was “inactive”.
For VTQESNHATIAVLM, the amyloid nucleation score was “inactive”.
With LHAMPLEGFLHLCPKLTCHQ the amyloid nucleation score was 0.676 ± 0.18.
In the case of MESDCQRDHNFIRIKIKIGE, the amyloid nucleation score is reported as 1.65 ± 0.09.
Work on IKFDGIIADFSSITVVLECT yielded an amyloid nucleation score of 0.708 ± 0.25.
In the case of KNLHNTRRLCSVLLVCWMYK, the amyloid nucleation score is reported as “inactive”.
FRNCRSWATCTAKARLHCPS showed an amyloid nucleation score of 0.812 ± 0.16.
In the case of GINDLISSALNNSRRLRTVG, the amyloid nucleation score is reported as “inactive”.
In the case of TLYKSGGEFHYKGLALKSKC, the amyloid nucleation score is reported as “inactive”.
